From PMC7317449, “On the mechanism of calcium‐dependent activation of NADPH oxidase 5 (NOX5)” (The Febs Journal, 2019)
Blank lines part the entries; values can stand above or below the binder they belong to.

How the values were obtained:
[1] = molecular target: the molecule itself; test: SEC-MALS; Superdex 200 10/300 GL, 100 μL samples, 50 mM Hepes pH 7.0, 25 mM NaCl, 0.5 TCEP, 1 mL/min; monomer to dimer
human calmodulin = molecular target: T1, human calmodulin (human, UniProt P0DP23 1-149); test: crystal structure; cocrystallised: 1078 µM calmodulin, 2800 µM peptide, 30 mM Tris/HCl pH 7.4, 2.5 mM CaCl2, 20 °C, sitting drop; 2.2 Å; settings: both partners purified
T1 construct: calmodulin, human; gene a gift from Susan Shao, cloned in pET15b without tag; source: cloned in pET15b without tag, purified following established protocols

B1: EF-domain of hNOX5 (residues 1–161, isoform β) (domain or fragment, human)
chain: MSAEEDARWLRWVTQQFKTIAGEDGEISLQEFKAALHVKESFFAERFFALFDSDRSGTITLQELQEALTLLIHGSPMDKLKFLFQVYDIDGSGSIDPDELRTVLQSCLRESAISLPDEKLDQLTLALFESADADGNGAITFEELRDELQRFPGVMENLTISAAA
notes: NADPH oxidase 5 (NOX5), human, isoform β (v2), EF-domain, residues 1-161; stretch of three alanines from the Not I restriction site, added at the C terminus for cloning reasons (told in words); also called human EF-domain; hEF domain; source: E. coli BL21, purified (Strep column, TEV cleavage, Strep and Nickel columns, Superdex 75); not shown: Strep-tag, N-terminal, cleaved
stoichiometry N [1]: 2

binding result (human calmodulin): binds
B2: peptide 673–691 of human DH-domain (putative calmodulin-binding region of hNOX5) (peptide)
peptide: Ac-DWSKVFQKVAAEKKGKVQV-NH2
notes: methods: peptide 673-691; The limits are told in two ways (673-691 and 674-685); Val691 is named as a contact, which fits 673-691; also called DH peptide; hNOX5 peptide; source: synthetic peptide (Chinepeptide Co, Shanghai)
